# Assay: yeast display, Sf9 membrane polyspecificity reagent, FACS + sequencing; frameworks hold sequencing errors
# Summary of the method: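 Synthetic nanobody libraries on Saccharomyces cerevisiae BJ5465 were galactose-induced for 36–48 hours, stained 1 hour at 4 °C with 10% biotinylated, detergent-solubilized Sf9 membrane reagent and enriched on streptavidin microbeads. FACS then separated cells into low and high (top ~1%) gates by anti-HA (expression) and streptavidin (reagent binding) fluorescence. Genes were colony-PCR amplified, MiSeq 2 × 250 sequenced and CDR-length filtered. A clone's polyreactivity label is that of its gate of origin.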
row,Sequence,polyreactivity (PSR sort gate)
1,QVQLVESGGGLVQAGGSLRLSCAASGRIFQKYAMGWYRQAPGKERELGAAISSGDSTYADSVKGRFTISRDNAKNTVYLQMNSLKPEDTAVYYCAVDLYDPWWYSYIGEYEYWGQGTQVTVSS,low polyreactivity
2,QVQLVESGGGLVQAGGSLRLSCAASGRIFQNYALGWYRQAPGKERELVATISSGVSTYYADSVKGRFTISRDNAKNTVYLQMNSLKPEDTAVYYCAAYVPWFEMDYWGQGTQVTVSS,low polyreactivity
3,QVQLVESGGGLVQAGGSLRLSCAASGRIFQPNVMGWYRPAPGKERELVAAIRSGSSTYYADSVKGRFTISRDNAKYTVYLQMNCLKPEDTAVYFCATRYRKQYKPYEYWGQGTQVTVSS,high polyreactivity
4,QVQLVESGGGLVQAGGSLRLSCAASGRIFQRNAMGWYRQAPGKERELVAAITSTGVRTYYADSVKGRFTISRDNAKNTVFLQMNSLNPEDTAVYYCAVRGERRYYGSKEDYWGQGTQVTVSS,high polyreactivity
5,QVQLVESGGGLVQAGGSLRLSCAASGRIFQRYAMGWSRQAPGKERELVAPISWSVSSTYYADSVKGRFTISRDNAKNTVYLQMNSLKPEDTAVYYCNAAFHVTLGYLYREYDYWGQGTQVTVSS,high polyreactivity
6,QVQLVESGGGLVQAGGSLRLSCAASGRIFQRYAMGWYRQAPGKERELVAAISSRGGRTFYADSVKGRFTISRDNAKNTVYLQMNSLKPEDTAAYYCAATATVGSVTFDYWGQGTQVTVSS,high polyreactivity
7,QVQLVESGGGLVQAGGSLRLSCAASGRIFQWNTMGWYRQAPGKEREFVAAISGSGVSTYYADSVKGRFTISRDNAKNTVYLQMNSLKPEDTAVYYCATTYPAYGRRGYDYWGQGTQVNVSS,high polyreactivity
8,QVQLVESGGGLVQAGGSLRLSCAASGRIFQYNAMGWYRQAPGKERELVAAIRRGGGSTYYADSVKGRFTISRDNAKNTVYLQMNSLKPEDTAVYYCAADASSQIWYYPRDDYWGQGTQVTVSS,low polyreactivity
9,QVQLVESGGGLVQAGGSLRLSCAASGRIFQYYAMGWYRQAPGKERELVAAISGRGTSTYYADSVKGRFTISRDNAKNTVYLQMNRLKPEDTAVYYCNADINYKSYFIHTFTIIPYGYWGQGTLVTVSS,low polyreactivity
10,QVQLVESGGGLVQAGGSLRLSCAASGRIFQYYAMGWYRQAPGKERELVAAITSGGRTTYADSVKGRFTISRDNAKNTVYLQMNSLKPEVTAVYYCNAKTWYSYNYWGQGTQVTVSS,high polyreactivity
11,QVQLVESGGGLVQAGGSLRLSCAASGRIFQYYVMGWYRQAPGKERELVARITYIGGGTYYADSVKGRFTMSRDNAKNTVYLQMNSLKPEDTAVYYWYARYPWREWEDDYWGQGTQVTVSS,low polyreactivity
12,QVQLVESGGGLVQAGGSLRLSCAASGRIFRANAMGWYRQAPGKERELVAGITRRGGSTNYADSVKGRFTISRDNAKTTVYLQMNSLKPEDTAVYYCNRDVSLSTSIRMDYWGQGTQVTVSS,low polyreactivity
13,QVQLVESGGGLVQAGGSLRLSCAASGRIFRDYAMGAYRPAPGKERELGATITRSGGRTYYADSVKGRFTISRDNAKNTVYLQMNSLKPEDTAVYYCAARWRIVSGRFDYWGQGTQVTVSS,high polyreactivity
14,QVQLVESGGGLVQAGGSLRLSCAASGRIFRDYAMGWYRQAPGKERELVAAIRSVGNTNYADSVKGRFTISRDNAKNTVYLQMNSLKPEDTAVYYCNRQGSDFSRQAIGDFRFDYWGQGTQVTVSS,low polyreactivity
15,QVQLVESGGGLVQAGGSLRLSCAASGRIFRDYAMGWYRQAPGKETELVATITWSGATTYYADSVKGRFTISRDNAKNTVYLQMNSLKPEDTAVYYCNTDTDVDVAFDSWGQGTQVTVSS,low polyreactivity
16,QVQLVESGGGLVQAGGSLRLSCAASGRIFRDYVMGWYRQAPGKERELVAAISRGGSTYYADSVKGRFTISRDNAKNTVYLQMNSLKPEDTAVYYCAASWRSYSQLDYYWGQGTQVTVSS,high polyreactivity
17,QVQLVESGGGLVQAGGSLRLSCAASGRIFRFYAIGAYRQAPGKERELVAVISTGGSTNYADSVKGRFTISRDNAKNTVYLQMNSLKPEDTAVYYCAKRKQSWGPGYSYYSSQYSMDYWGQGTLVTVSS,high polyreactivity
18,QVQLVESGGGLVQAGGSLRLSCAASGRIFRFYAMGWYRQAPGKERELVAAISWRGGRTYYADSVKGRFTISRDNAKNTVYLQMNSLKPEDTAVYYCNADKYETSGWKYDSWGQGTQVTVSS,low polyreactivity
19,QVQLVESGGGLVQAGGSLRLSCAASGRIFRFYAMGWYRQAPGKERELVAAITRNVGSTFYADSVKGRFTISRDNAKNTVYLQMNSLKPEDTAVYYCAAESDYYYRYTFDYWGQGTQVTVSS,low polyreactivity
20,QVQLVESGGGLVQAGGSLRLSCAASGRIFRFYAMGWYRQAPGKETELVATINSGVGRTYYADSVKGRFTISRDNAKNTVYLQFNSLKPEDTAVYYCAAEKRSYPQSYYYWGQGTQVTVSS,high polyreactivity
21,QVQLVESGGGLVQAGGSLRLSCAASGRIFRGNAMGWYRQARGKERELVAGISVRGGRTYYADSVKGRFTISRDNAKNTVYLQMNSLKPEDTAVYYCAAVFWDDYGKYYYWGQGTQVTVSS,high polyreactivity
22,QVQLVESGGGLVQAGGSLRLSCAASGRIFRGYAMGWYRQAPGKERELVAAIDTDTGITYYADSVKGRFTISRDNAKNTVYLQMNSLKPEDTAVYYCAAETYYAVSTGYYFDYWGQGTQVTVSS,high polyreactivity

row,Sequence,polyreactivity (PSR sort gate)
1,QVQLVESGGGLVQAGGSLRLSCAASGRIFRGYAMGWYRQAPGKERELVAAISGSGGSTYYADSVKGRFTISRDNAKNTVYLQMNSLKPEDTAVYYCNAGWYFYGETTDDYWGQGTQVTVSS,low polyreactivity
2,QVQLVESGGGLVQAGGSLRLSCAASGRIFRGYAMGWYRQAPGKERELVAAITTNGGSTYADSVKGRFTISRDNAKNTVYLQMNSLKPEDTAVYYCAARRVGWARGSGNYDYWGQGTQVTVSS,low polyreactivity
3,QVQLVESGGGLVQAGGSLRLSCAASGRIFRGYAMGWYRQAPGKERELVATINASGGTTYYADSVKGRFTISRDNAKNTVYLQMNSLKPEDTAVYYCNARYRRFFSGYGYWGQGTQVTVSS,high polyreactivity
4,QVQLVESGGGLVQAGGSLRLSCAASGRIFRINAMGWYRQAPGKERELVATITSGGGSTYADSVKGRFTISRDNAKNTVYLQMNSLKPEDTAVYYCAARSRIGRYTYDYWGQGTQVTVSS,high polyreactivity
5,QVQLVESGGGLVQAGGSLRLSCAASGRIFRIYAMGWYRQAPGKERELVASITWRGGRTYYADSVKGRFTISRDNAKNTVYLQMNSLKPEDTAVYYCAATSSTSYYWGQGTQVTVSS,high polyreactivity
6,QVQLVESGGGLVQAGGSLRLSCAASGRIFRKYTMGWYRQAPGKERELVAAISRNGGDTYYADSVKGRFTISRDNAKNTVYLQMNSLKPEDTAVYYCNARTPTDSTHFDYWGQGTQVTVSS,low polyreactivity
7,QVQLVESGGGLVQAGGSLRLSCAASGRIFRLYAMGWYRQAPGKERELVAAIRVSGNTYYADSVKGRFTISRDNAKNTVYLQMNSLKPEDTAVYYCAAKPYYFYGMDYWGQGTQVTVSS,high polyreactivity
8,QVQLVESGGGLVQAGGSLRLSCAASGRIFRLYAMGWYRQAPGKERELVAAITSSGSSTYYADSVKGRFTISRDNAKNTVSLQMNSLKPEDTAVYYCNARYTYPYHFGYWGQGTQVTVSS,high polyreactivity
9,QVQLVESGGGLVQAGGSLRLSCAASGRIFRNTMGWYIQAPGKERELVAAITDTTDSTYYADSVKGRFTISRDNAKNTVYLQMYSLKPEDTAVYYCAARYGGYVNRPYYYWGQGTQVTVSS,low polyreactivity
10,QVQLVESGGGLVQAGGSLRLSCAASGRIFRPNAMGWYRQAPGKERELVAAMTSGGSTNYADSVKGRFTISRDNAKNTVYLQMNSLKPEDTAVYYCAKGYKYGKNIYYYWGQGTQVTVSS,high polyreactivity
11,QVQLVESGGGLVQAGGSLRLSCAASGRIFRPYAMGWYRQAPGKERELVAAITQSGGITSYADSVKGRFTISRDNAKYTVYLQMNSLKPEDTAVYYCAADDFTTAGFGMDYWGEGTQVTVSS,low polyreactivity
12,QVQLVESGGGLVQAGGSLRLSCAASGRIFRPYTMGWYRQAPGKEWELVAAISIGGRTYYADSVKGRFTISRDNAKNTVYLKMNSLKPEDTAVYYCAAVGGSDRRARPGRAVDYWGQGTQVTVSS,high polyreactivity
13,QVQLVESGGGLVQAGGSLRLSCAASGRIFRRKTMGWYRQAPGKERELVAAITSRGGSTYYADSVKGRFTISRDNAKNTFYLKMNSLIPEDTGFYYCNTRVVPEIYDYWGQGSQVTVSS,high polyreactivity
14,QVQLVESGGGLVQAGGSLRLSCAASGRIFRRNTMGWYRQAPGIERELVAAITSSGGSTYADSVKGRFTISRDNAKNTVYLQMNSLKPEDTAVYYCATYVAYHRGYRTYDHWGQGTQVTVSS,low polyreactivity
15,QVQLVESGGGLVQAGGSLRLSCAASGRIFRRYAMGWYRQAPGKERELVAAISSGGGSTYYADSVKGRFTISRDNAKNTVYLQMNSLKPEDTAVYYCNTDFYYDDVSQAHDYWGQGTQVTVSS,high polyreactivity
16,QVQLVESGGGLVQAGGSLRLSCAASGRIFRRYAMGWYRQAPGKERELVASISLSGGSTYYADSVKGRFTISRDNAKNTVYLQMNSLKPEDTAVYYCAAVIRAYATRATYNSWGQGTQVTVSS,high polyreactivity
17,QVQLVESGGGLVQAGGSLRLSCAASGRIFRRYAMGWYRQAPGKERELVASITWGGSSTSYADSVKGRFTISRDNAKNTVYLQMNSLKPEDTAVYYCNADFPTAIPYGYDYWGQGTQVTVSS,low polyreactivity
18,QVQLVESGGGLVQAGGSLRLSCAASGRIFRRYAMGWYRQAPGKERELVSAITSGSSTYYADSVKGRFTISRDNPKNTVNLQMISVKPEYSAVYYCAALGYTYKYYSYYWGHGTQVTVSS,high polyreactivity
19,QVQLVESGGGLVQAGGSLRLSCAASGRIFRRYVMGWYRQAPGKERELVARIRIRDSNTYYADSVKGRCTISRDNAKNTVYLQMNSLKPEDTAVYYCAVVANYVYSKYDYWGQGTQVTVSS,low polyreactivity
20,QVQLVESGGGLVQAGGSLRLSCAASGRIFRRYVMGWYRQAPGKERELVARIRIRDSNTYYADSVKGRFTISRDNAKNTVYLQMNSLKPEDTAVYYCAVVANYVYSKYDYWGQGTQVTVSS,low polyreactivity
21,QVQLVESGGGLVQAGGSLRLSCAASGRIFRSNAMGWYRQAPGKERELVAVINSDDSTYYADSVKGRFTISRDNAKNTVYLQMNCLKPEDTAVYYCAAEPQYTRHMDSWGQGTQVTVSS,low polyreactivity
